Source: article PMC5576896 (Cell reports, 2016)
One block for each binder: values may come before it.

B1: recombinant RECQL4 (natural protein, human, UniProt O94761 1-1208, looked up)
chain: MERLRDVRERLQAWERAFRRQRGRRPSQDDVEAAPEETRALYREYRTLKRTTGQAGGGLRSSESLPAAAEEAPEPRCWGPHLNRAATKSPQSTPGRSRQGSVPDYGQRLKANLKGTLQAGPALGRRPWPLGRASSKASTPKPPGTGPVPSFAEKVSDEPPQLPEPQPRPGRLQHLQASLSQRLGSLDPGWLQRCHSEVPDFLGAPKACRPDLGSEESQLLIPGESAVLGPGAGSQGPEASAFQEVSIRVGSPQPSSSGGEKRRWNEEPWESPAQVQQESSQAGPPSEGAGAVAVEEDPPGEPVQAQPPQPCSSPSNPRYHGLSPSSQARAGKAEGTAPLHIFPRLARHDRGNYVRLNMKQKHYVRGRALRSRLLRKQAWKQKWRKKGECFGGGGATVTTKESCFLNEQFDHWAAQCPRPASEEDTDAVGPEPLVPSPQPVPEVPSLDPTVLPLYSLGPSGQLAETPAEVFQALEQLGHQAFRPGQERAVMRILSGISTLLVLPTGAGKSLCYQLPALLYSRRSPCLTLVVSPLLSLMDDQVSGLPPCLKAACIHSGMTRKQRESVLQKIRAAQVHVLMLTPEALVGAGGLPPAAQLPPVAFACIDEAHCLSQWSHNFRPCYLRVCKVLRERMGVHCFLGLTATATRRTASDVAQHLAVAEEPDLHGPAPVPTNLHLSVSMDRDTDQALLTLLQGKRFQNLDSIIIYCNRREDTERIAALLRTCLHAAWVPGSGGRAPKTTAEAYHAGMCSRERRRVQRAFMQGQLRVVVATVAFGMGLDRPDVRAVLHLGLPPSFESYVQAVGRAGRDGQPAHCHLFLQPQGEDLRELRRHVHADSTDFLAVKRLVQRVFPACTCTCTRPPSEQEGAVGGERPVPKYPPQEAEQLSHQAAPGPRRVCMGHERALPIQLTVQALDMPEEAIETLLCYLELHPHHWLELLATTYTHCRLNCPGGPAQLQALAHRCPPLAVCLAQQLPEDPGQGSSSVEFDMVKLVDSMGWELASVRRALCQLQWDHEPRTGVRRGTGVLVEFSELAFHLRSPGDLTAEEKDQICDFLYGRVQARERQALARLRRTFQAFHSVAFPSCGPCLEQQDEERSTRLKDLLGRYFEEEEGQEPGGMEDAQGPEPGQARLQDWEDQVRCDIRQFLSLRPEEKFSSRAVARIFHGIGSPCYPAQVYGQDRRFWRKYLHLSFHALVGLATEELLQVAR

Key:
[1] = biological target: MRE11-RAD50-NBS1 complex (recombinant) (human, UniProt P49959 1-708; Q92878 1-1312; O60934 1-754); assay: co-IP
MRE11-RAD50-NBS1 complex (recombinant), sequence (Q92878 whole entry, chain 2 of 2): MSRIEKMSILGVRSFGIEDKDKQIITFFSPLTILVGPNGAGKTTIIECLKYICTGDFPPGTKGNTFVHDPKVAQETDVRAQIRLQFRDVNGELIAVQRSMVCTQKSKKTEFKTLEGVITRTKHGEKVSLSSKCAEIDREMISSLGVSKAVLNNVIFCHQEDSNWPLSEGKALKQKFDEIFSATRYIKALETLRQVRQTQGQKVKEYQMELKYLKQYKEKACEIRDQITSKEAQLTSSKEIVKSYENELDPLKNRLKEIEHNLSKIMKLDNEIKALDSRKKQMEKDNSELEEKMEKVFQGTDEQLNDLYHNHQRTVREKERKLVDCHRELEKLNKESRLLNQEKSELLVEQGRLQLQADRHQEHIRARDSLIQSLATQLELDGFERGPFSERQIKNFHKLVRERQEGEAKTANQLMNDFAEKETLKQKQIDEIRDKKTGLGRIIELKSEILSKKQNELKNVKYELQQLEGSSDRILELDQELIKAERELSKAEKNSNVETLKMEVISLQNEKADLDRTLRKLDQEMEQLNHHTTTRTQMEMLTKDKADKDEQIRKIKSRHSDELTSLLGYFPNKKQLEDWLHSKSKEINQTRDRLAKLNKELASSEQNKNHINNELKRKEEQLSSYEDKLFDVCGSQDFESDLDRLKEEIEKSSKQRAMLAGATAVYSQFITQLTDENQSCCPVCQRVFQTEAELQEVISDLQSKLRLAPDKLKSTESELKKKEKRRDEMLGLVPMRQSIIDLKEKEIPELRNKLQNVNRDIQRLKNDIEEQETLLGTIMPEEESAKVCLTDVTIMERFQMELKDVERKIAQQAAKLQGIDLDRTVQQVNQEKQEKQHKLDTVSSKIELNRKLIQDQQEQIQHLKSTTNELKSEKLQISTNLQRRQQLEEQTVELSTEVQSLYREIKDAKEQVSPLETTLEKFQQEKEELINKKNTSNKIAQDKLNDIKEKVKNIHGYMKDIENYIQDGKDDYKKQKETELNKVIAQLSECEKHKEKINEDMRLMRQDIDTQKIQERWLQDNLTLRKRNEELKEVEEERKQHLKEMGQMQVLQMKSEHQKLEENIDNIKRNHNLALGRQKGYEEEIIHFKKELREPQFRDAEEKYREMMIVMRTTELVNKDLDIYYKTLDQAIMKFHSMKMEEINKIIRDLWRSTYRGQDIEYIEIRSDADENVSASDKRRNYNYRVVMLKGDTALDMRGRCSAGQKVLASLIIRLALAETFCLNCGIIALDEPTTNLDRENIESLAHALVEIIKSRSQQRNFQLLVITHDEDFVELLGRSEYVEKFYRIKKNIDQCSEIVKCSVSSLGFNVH
MRE11-RAD50-NBS1 complex (recombinant), sequence (O60934 whole entry, chain 3 of 2): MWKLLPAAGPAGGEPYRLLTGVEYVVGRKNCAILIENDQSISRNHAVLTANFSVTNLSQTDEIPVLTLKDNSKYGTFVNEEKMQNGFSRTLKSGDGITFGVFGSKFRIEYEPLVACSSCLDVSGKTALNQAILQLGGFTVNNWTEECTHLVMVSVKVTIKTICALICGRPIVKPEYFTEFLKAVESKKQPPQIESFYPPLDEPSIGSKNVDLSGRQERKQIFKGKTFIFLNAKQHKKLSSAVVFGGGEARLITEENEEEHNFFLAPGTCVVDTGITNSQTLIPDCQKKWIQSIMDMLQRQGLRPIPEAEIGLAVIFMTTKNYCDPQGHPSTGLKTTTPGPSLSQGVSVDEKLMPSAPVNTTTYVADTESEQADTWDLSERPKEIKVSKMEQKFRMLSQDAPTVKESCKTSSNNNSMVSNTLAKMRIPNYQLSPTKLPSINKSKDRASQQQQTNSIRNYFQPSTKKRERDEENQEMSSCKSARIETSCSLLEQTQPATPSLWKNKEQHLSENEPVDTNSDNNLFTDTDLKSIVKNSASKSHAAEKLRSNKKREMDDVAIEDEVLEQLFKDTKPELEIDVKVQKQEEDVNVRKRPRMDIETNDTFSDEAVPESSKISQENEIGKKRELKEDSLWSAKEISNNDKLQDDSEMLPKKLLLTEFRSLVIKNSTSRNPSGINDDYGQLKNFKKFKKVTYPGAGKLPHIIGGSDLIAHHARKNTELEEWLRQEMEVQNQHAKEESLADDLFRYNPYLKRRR

recombinant RECQL4 = biological target: B1; assay: co-IP
purified RECQL4-3XFLAG = biological target: T1, purified RECQL4-3XFLAG (human, UniProt O94761 1-1208); assay: pull-down
T1 sequence (looked up): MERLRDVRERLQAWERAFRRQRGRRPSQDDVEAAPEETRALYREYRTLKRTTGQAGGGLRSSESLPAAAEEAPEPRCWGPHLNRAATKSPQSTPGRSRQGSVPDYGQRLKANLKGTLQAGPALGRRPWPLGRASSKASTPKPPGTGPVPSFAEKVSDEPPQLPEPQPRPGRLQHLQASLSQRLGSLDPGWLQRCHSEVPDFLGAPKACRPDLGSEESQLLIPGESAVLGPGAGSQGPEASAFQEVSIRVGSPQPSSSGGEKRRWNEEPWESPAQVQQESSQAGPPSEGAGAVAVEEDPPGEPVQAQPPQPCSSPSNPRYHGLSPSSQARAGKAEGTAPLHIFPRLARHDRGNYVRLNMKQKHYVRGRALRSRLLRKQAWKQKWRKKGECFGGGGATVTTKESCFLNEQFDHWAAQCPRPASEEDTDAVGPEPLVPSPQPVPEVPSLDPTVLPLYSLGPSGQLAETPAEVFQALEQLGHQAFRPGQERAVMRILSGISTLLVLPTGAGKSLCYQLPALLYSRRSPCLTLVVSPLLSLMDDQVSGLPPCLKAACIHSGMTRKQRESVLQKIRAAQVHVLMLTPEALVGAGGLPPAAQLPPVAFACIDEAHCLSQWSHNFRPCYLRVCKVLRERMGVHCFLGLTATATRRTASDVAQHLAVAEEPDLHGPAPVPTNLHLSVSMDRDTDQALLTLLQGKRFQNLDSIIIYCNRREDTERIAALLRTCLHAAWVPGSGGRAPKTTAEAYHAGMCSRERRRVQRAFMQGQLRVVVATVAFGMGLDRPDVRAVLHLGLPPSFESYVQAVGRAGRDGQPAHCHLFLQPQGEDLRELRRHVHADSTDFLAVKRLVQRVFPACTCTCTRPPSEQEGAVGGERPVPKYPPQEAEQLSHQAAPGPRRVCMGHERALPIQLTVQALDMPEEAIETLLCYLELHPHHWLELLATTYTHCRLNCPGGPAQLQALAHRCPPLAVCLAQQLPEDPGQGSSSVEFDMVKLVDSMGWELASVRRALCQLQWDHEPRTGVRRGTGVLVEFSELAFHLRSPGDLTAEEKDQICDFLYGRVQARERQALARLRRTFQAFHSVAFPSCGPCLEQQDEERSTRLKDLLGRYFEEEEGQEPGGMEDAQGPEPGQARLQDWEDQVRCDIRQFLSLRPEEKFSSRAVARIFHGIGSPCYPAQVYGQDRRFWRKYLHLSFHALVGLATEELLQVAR

RECQL4-KM-3XFLAG = biological target: T2, RECQL4-KM-3XFLAG (human, UniProt O94761 1-1208, lysine 508 replaced with methionine (RECQL4-KM)); assay: pull-down
T2 sequence (looked up): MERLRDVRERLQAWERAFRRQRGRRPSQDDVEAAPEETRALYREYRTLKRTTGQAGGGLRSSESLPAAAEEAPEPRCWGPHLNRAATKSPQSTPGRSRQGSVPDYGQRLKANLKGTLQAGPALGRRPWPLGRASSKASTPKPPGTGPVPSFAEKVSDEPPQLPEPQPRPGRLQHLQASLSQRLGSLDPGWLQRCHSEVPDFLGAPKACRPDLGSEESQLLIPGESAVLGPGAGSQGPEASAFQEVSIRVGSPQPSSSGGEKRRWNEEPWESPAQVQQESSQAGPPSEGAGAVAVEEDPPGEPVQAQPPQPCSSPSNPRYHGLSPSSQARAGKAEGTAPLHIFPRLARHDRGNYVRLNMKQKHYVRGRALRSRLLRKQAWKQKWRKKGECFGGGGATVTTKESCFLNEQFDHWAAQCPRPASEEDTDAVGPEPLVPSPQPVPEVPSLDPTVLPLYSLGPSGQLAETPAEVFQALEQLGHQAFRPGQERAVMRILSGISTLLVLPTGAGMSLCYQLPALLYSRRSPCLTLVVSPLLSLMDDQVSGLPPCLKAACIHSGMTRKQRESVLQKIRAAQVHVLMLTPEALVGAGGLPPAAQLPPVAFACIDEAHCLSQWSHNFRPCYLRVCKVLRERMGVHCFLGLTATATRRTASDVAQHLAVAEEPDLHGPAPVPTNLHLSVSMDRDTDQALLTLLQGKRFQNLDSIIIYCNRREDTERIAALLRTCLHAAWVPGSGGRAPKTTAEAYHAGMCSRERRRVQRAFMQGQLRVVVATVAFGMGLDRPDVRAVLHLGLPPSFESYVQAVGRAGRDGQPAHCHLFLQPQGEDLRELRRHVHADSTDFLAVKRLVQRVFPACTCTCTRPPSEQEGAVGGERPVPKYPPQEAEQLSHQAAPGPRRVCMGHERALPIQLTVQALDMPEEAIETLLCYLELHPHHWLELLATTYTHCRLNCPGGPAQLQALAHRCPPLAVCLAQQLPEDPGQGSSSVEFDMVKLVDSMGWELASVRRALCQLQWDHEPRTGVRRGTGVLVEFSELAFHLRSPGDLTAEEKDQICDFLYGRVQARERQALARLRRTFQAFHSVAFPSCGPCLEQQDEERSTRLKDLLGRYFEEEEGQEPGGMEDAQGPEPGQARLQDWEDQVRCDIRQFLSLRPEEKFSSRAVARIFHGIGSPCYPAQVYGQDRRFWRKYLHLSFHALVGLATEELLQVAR

Binder: B1
binding result [1]: binds

binding result (recombinant RECQL4): binds
B2: recombinant CtIP (natural protein, human, UniProt Q99708 1-897, looked up)
chain: MNISGSSCGSPNSADTSSDFKDLWTKLKECHDREVQGLQVKVTKLKQERILDAQRLEEFFTKNQQLREQQKVLHETIKVLEDRLRAGLCDRCAVTEEHMRKKQQEFENIRQQNLKLITELMNERNTLQEENKKLSEQLQQKIENDQQHQAAELECEEDVIPDSPITAFSFSGVNRLRRKENPHVRYIEQTHTKLEHSVCANEMRKVSKSSTHPQHNPNENEILVADTYDQSQSPMAKAHGTSSYTPDKSSFNLATVVAETLGLGVQEESETQGPMSPLGDELYHCLEGNHKKQPFEESTRNTEDSLRFSDSTSKTPPQEELPTRVSSPVFGATSSIKSGLDLNTSLSPSLLQPGKKKHLKTLPFSNTCISRLEKTRSKSEDSALFTHHSLGSEVNKIIIQSSNKQILINKNISESLGEQNRTEYGKDSNTDKHLEPLKSLGGRTSKRKKTEEESEHEVSCPQASFDKENAFPFPMDNQFSMNGDCVMDKPLDLSDRFSAIQRQEKSQGSETSKNKFRQVTLYEALKTIPKGFSSSRKASDGNCTLPKDSPGEPCSQECIILQPLNKCSPDNKPSLQIKEENAVFKIPLRPRESLETENVLDDIKSAGSHEPIKIQTRSDHGGCELASVLQLNPCRTGKIKSLQNNQDVSFENIQWSIDPGADLSQYKMDVTVIDTKDGSQSKLGGETVDMDCTLVSETVLLKMKKQEQKGEKSSNEERKMNDSLEDMFDRTTHEEYESCLADSFSQAADEEEELSTATKKLHTHGDKQDKVKQKAFVEPYFKGDERETSLQNFPHIEVVRKKEERRKLLGHTCKECEIYYADMPAEEREKKLASCSRHRFRYIPPNTPENFWEVGFPSTQTCMERGYIKEDLDPCPRPKRRQPYNAIFSPKGKEQKT

binding result (purified RECQL4-3XFLAG): binds
binding result (RECQL4-KM-3XFLAG): binds
B3: purified YFP-MRE11 (natural protein, human, UniProt P49959 1-708, looked up)
chain: MSTADALDDENTFKILVATDIHLGFMEKDAVRGNDTFVTLDEILRLAQENEVDFILLGGDLFHENKPSRKTLHTCLELLRKYCMGDRPVQFEILSDQSVNFGFSKFPWVNYQDGNLNISIPVFSIHGNHDDPTGADALCALDILSCAGFVNHFGRSMSVEKIDISPVLLQKGSTKIALYGLGSIPDERLYRMFVNKKVTMLRPKEDENSWFNLFVIHQNRSKHGSTNFIPEQFLDDFIDLVIWGHEHECKIAPTKNEQQLFYISQPGSSVVTSLSPGEAVKKHVGLLRIKGRKMNMHKIPLHTVRQFFMEDIVLANHPDIFNPDNPKVTQAIQSFCLEKIEEMLENAERERLGNSHQPEKPLVRLRVDYSGGFEPFSVLRFSQKFVDRVANPKDIIHFFRHREQKEKTGEEINFGKLITKPSEGTTLRVEDLVKQYFQTAEKNVQLSLLTERGMGEAVQEFVDKEEKDAIEELVKYQLEKTQRFLKERHIDALEDKIDEEVRRFRETRQKNTNEEDDEVREAMTRARALRSQSEESASAFSADDLMSIDLAEQMANDSDDSISAATNKGRGRGRGRRGGRGQNSASRGGSQRGRADTGLETSTRSRNSKTAVSASRNMSIIDAFKSTRQQPSRNVTTKNYSEVIEVDESDVEEDIFPTTSKTDQRWSSTSSSKIMSQSQVSKGVDFESSEDDDDDPFMNTSSLRRNRR
